Data from patent US20180086841A1 (Merck Sharp & Dohme, published 2018).
Substitutions are numbered along the chain they refer to.

Experiments:
Experiment in all cases: flow cytometry on CHO-K1 transfectants, left sub-column
K31A = target: T1, K31A
T1 construct: also called hCD27 K31A
T1 receptor chain: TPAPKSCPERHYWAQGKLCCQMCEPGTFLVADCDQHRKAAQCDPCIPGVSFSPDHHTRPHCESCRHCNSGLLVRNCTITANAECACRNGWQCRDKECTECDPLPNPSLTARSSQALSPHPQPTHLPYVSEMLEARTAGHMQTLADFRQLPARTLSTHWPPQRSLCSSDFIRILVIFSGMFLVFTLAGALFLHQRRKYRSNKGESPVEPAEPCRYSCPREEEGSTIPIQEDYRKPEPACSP
Protocol: (§1) The hCD27 variants that were tested are listed. Amino acids correspond to the UniProt P26842-1 sequence. Amino acids 1-20 constitute the signal peptide. Binding is expressed as the geometric mean of the FITC signal, relative to antibody binding to hCD27, which was set at 100%.
(§2) The ability of several anti-hCD27 antibodies to bind to a series of hCD27 alanine mutants was determined using CHO-K1 cells, transiently transfected pCI-neo empty vector, pCI-neo.hCD27 and several pCI-neo.CD27Ala mutant constructs.
(§3) Detached cells were transferred to 96 wells round-bottomed well plates at approximately 1.2×10⁵ cells/well. After spinning down the cells, discarding the supernatants and re-suspending the cells in the residual volume, the primary antibodies were added and incubated for 30 minutes at 4° C. Cells were washed three times with DPBS/BSA 1%, followed by centrifugation, discarding of the supernatants and re-suspension in the residual volume. […] After washing once, antibody binding was detected using the HTS plate reader (FACS Canto II) and FlowJo software for data analysis. Debris, dead cells and doublets were excluded from the analysis. Binding was expressed as the geometric mean of the FITC signal, relative to antibody binding to hCD27, which was set at 100%.

F28A = target: T2, F28A
T2 construct: also called hCD27 F28A
T2 receptor chain: T1 receptor chain with F28A, A31K
Protocol: as §1, §2, §3

W13A = target: T3, W13A
T3 construct: also called hCD27 W13A
T3 receptor chain: T1 receptor chain with W13A, A31K
Protocol: as §1, §2, §3

Q41A = target: T4, Q41A
T4 construct: also called hCD27 Q41A
T4 receptor chain: T1 receptor chain with A31K, Q41A
Protocol: as §1, §2, §3

E9A = target: T5, E9A
T5 construct: also called hCD27 E9A
T5 receptor chain: T1 receptor chain with E9A, A31K
Protocol: as §1, §2, §3

I46A = target: T6, I46A
T6 construct: also called hCD27 I46A
T6 receptor chain: T1 receptor chain with A31K, I46A
Protocol: as §1, §2, §3

G16A = target: T7, G16A
T7 construct: also called hCD27 G16A
T7 receptor chain: T1 receptor chain with G16A, A31K
Protocol: as §1, §2, §3

G89A = target: T8, G89A
T8 construct: also called hCD27 G89A
T8 receptor chain: T1 receptor chain with A31K, G89A
Protocol: as §1, §2, §3

N88A = target: T9, N88A
T9 construct: also called hCD27 N88A
T9 receptor chain: T1 receptor chain with A31K, N88A
Protocol: as §1, §2, §3

R93A = target: T10, R93A
T10 construct: also called hCD27 R93A
T10 receptor chain: T1 receptor chain with A31K, R93A
Protocol: as §1, §2, §3

binding, WT hCD27 = 100 (GM FITC) (K31A): 203%
binding, WT hCD27 = 100 (GM FITC) (F28A): 106%
binding, WT hCD27 = 100 (GM FITC) (W13A): 86%
binding, WT hCD27 = 100 (GM FITC) (Q41A): 108%
binding, WT hCD27 = 100 (GM FITC) (E9A): 96.7%
binding, WT hCD27 = 100 (GM FITC) (I46A): 132%
binding, WT hCD27 = 100 (GM FITC) (G16A): 94.8%
binding, WT hCD27 = 100 (GM FITC) (G89A): 113%
binding, WT hCD27 = 100 (GM FITC) (N88A): 162%
binding, WT hCD27 = 100 (GM FITC) (R93A): 125%
B1: hCD27.131A (mouse parental 131A) (antibody, mouse IgG1, V domains shown)
VH: QIQLVQSGPELKKPGETVKISCKASGYTFTNYGMNWVKQAPGKGLKWMGWINTNTGEPTYAEEFKGRFAFSLETSATTAYLQINNLKNEDTATYFCAREGDAMDYWGQGTSVTVSS
VL: QIVLTQSPAIMSASPGEKVTMTCSASSSVSYMHWYQQKSGTSPKRWIYDTSKLASGVPARFSGSGSGTSYSLTISSMEAEDAATYYCQQWNSYPFTFGSGTKLEIK
notes: Mouse IgG1 antibody; also called mouse hCD27.131A
